Results from patent US20230414702A1 (INSERM INSTITUT NATIONAL DE LA SANT ET DE LA REC HERCHE M …, published 2023).
Non-standard residues stand in square brackets, D forms with d. No end group written: not given here. NMeR = CN[C@@H](CCCNC(=N)N)C(=O)O; Nle = CCCC[C@H](N)C(=O)O

Key:
CD47 receptor [1] = target: T1, CD47 receptor (UniProt Q08722 19-323, limits assumed); assay: column Kd (OR); biolayer interferometry on Octet RED96, biotinylated MEC-1 membrane preparation on SSA biosensors
T1 construct: whole, on cells; The assays used a whole MEC-1 cell membrane preparation, not purified CD47; also called membrane preparation from MEC-1 cells
T1 sequence (Q08722 19-323 limits assumed): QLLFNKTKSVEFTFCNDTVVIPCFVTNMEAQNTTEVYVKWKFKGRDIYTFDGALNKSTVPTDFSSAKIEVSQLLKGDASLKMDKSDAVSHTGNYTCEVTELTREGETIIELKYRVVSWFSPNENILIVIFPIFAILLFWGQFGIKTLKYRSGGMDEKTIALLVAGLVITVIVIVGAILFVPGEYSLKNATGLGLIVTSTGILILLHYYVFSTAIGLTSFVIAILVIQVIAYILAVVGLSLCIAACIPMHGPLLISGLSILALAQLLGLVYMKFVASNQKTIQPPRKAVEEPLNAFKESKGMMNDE

CD47 receptor [2] = target: T1, CD47 receptor; assay: microscale thermophoresis (MST), labeled MEC-1 membrane preparation
Procedure: (§1) For all experiments the concentration of the NT.115-labeled membrane was kept constant, while the concentrations of the ligand (peptide) was varied. After a short incubation time (5 min) the samples were loaded into MST premium glass capillaries and the MST analysis was performed using the Monolith NT.115.

CD47 receptor [3] = target: T1, CD47 receptor; assay: column Kd(µM)PR; binding to MEC-1 membrane preparation, method not named in Table 4
CD47 receptor [4] = target: T1, CD47 receptor; assay: binding to MEC-1 membrane preparation; method not named in Table 3 (same value as the OR column of Table 2)
CD47 receptor [5] = target: T1, CD47 receptor; assay: binding to MEC-1 membrane preparation; method not named in Table 3
CD47 receptor [6] = target: T1, CD47 receptor; assay: apparent Kd, biolayer interferometry (BI) on Octet RED96, biotinylated MEC-1 membrane preparation on SSA biosensors
Excerpt: This system monitors interference of light reflected from two sources (an internal reflection surface and the liquid/solid interface of a fiber optic sensor) to measure the rate of binding of molecules to the biosensor surface. MEC-1 cells membrane preparation is biotinylated with the EZ-Link NHS-PEG4-Biotin kit from Thermo-Scientific and excess biotin is removed using desalting column from Thermo-Scientific. […] Typically, the biosensors were pre-equilibrated in PBS containing either biotinylated membranes or biocytine 100 μg/mL. Biosensors are then equilibrated in assay buffer for 10 min, brought to baseline in assay buffer for 60 sec. and transferred to wells containing peptide in dose-response (association for 120 sec. and dissociation for 300 sec.). The double reference with either membrane-loaded biosensors without any peptide dose-response or biocytine-loaded biosensors with each peptide dose-response were run in parallel for background signal double subtractions.

CD47 receptor [7] = target: T1, CD47 receptor; assay: apparent Kd, microscale thermophoresis (MST), Monolith NT.115, NT.115-labeled membrane
Procedure: as §1

KRFYVVMWKK ((D)-Lys at position 1 and (D)-Lys at position 10, also called 4(PKHB1)) [PKHB1, H-(D)K R F Y V V M W K (D)K-OH]
Kd (CD47 receptor [1]): 43 µM | Kd (CD47 receptor [2]): 3.04 µM | Kd (CD47 receptor [3]): 22.6 µM | Kd (CD47 receptor [4]): 43 µM

B1: 4N1K (peptide)
peptide: KRFYVVMWKK
notes: Decapeptide that mimics the C-terminal domain of TSP-1
Kd (CD47 receptor [1]): 19 µM | Kd (CD47 receptor [2]): 2.28 µM | Kd (CD47 receptor [4]): 19 µM

B2: K9/A, kRFYVVMW(A)k (peptide)
peptide: H-[dK]RFYVVMWA[dK]-OH
SMILES: CSCC[C@H](NC(=O)[C@@H](NC(=O)[C@@H](NC(=O)[C@H](Cc1ccc(O)cc1)NC(=O)[C@H](Cc1ccccc1)NC(=O)[C@H](CCCNC(=N)N)NC(=O)[C@H](N)CCCCN)C(C)C)C(C)C)C(=O)N[C@@H](Cc1c[nH]c2ccccc12)C(=O)N[C@@H](C)C(=O)N[C@H](CCCCN)C(=O)O
notes: Ala-scan analogue of PKHB1
Kd (CD47 receptor [5]): 27 µM

[dK]RFYVVAWK[dK] (Ala-scan analogue of PKHB1) [M7/A, kRFYVV(A)WKk]
Kd (CD47 receptor [5]): 42 µM

B3: PKT17, H-(D)K ψ(CONMe)R F Y V V L W K (D)K-OH (peptide)
peptide: H-[dK][NMeR]FYVVLWK[dK]-OH
SMILES: CC(C)C[C@H](NC(=O)[C@@H](NC(=O)[C@@H](NC(=O)[C@H](Cc1ccc(O)cc1)NC(=O)[C@H](Cc1ccccc1)NC(=O)[C@H](CCCNC(=N)N)N(C)C(=O)[C@H](N)CCCCN)C(C)C)C(C)C)C(=O)N[C@@H](Cc1c[nH]c2ccccc12)C(=O)N[C@@H](CCCCN)C(=O)N[C@H](CCCCN)C(=O)O
Kd (CD47 receptor [3]): 12 µM

B4: R2/A, k(A)FYVVMWKk (peptide)
peptide: H-[dK]AFYVVMWK[dK]-OH
SMILES: CSCC[C@H](NC(=O)[C@@H](NC(=O)[C@@H](NC(=O)[C@H](Cc1ccc(O)cc1)NC(=O)[C@H](Cc1ccccc1)NC(=O)[C@H](C)NC(=O)[C@H](N)CCCCN)C(C)C)C(C)C)C(=O)N[C@@H](Cc1c[nH]c2ccccc12)C(=O)N[C@@H](CCCCN)C(=O)N[C@H](CCCCN)C(=O)O
notes: Ala-scan analogue of PKHB1
Kd (CD47 receptor [5]): 6.2 µM

B5: M/Nle, kRFYVV(Nle)WKk (peptide)
peptide: H-[dK]RFYVV[Nle]WK[dK]-OH
SMILES: CCCC[C@H](NC(=O)[C@@H](NC(=O)[C@@H](NC(=O)[C@H](Cc1ccc(O)cc1)NC(=O)[C@H](Cc1ccccc1)NC(=O)[C@H](CCCNC(=N)N)NC(=O)[C@H](N)CCCCN)C(C)C)C(C)C)C(=O)N[C@@H](Cc1c[nH]c2ccccc12)C(=O)N[C@@H](CCCCN)C(=O)N[C@H](CCCCN)C(=O)O
Kd (CD47 receptor [5]): 18 µM

B6: PKT11, H-(D)K ψ(CONMe)R F Y V V M W K (D)K-OH (peptide)
peptide: KRFYVVMWKK
modifications: (D)-Lys at positions 1 and 10; N-methyl pseudopeptide bond ψ(CONMe) between (D)Lys1 and Arg2
Kd (CD47 receptor [3]): 21.7 µM

B7: PKT15, H-(D)K ψ(CONMe)R F Y V V M W ψ(CONMe)K (D)K-OH (peptide)
peptide: KRFYVVMWKK
modifications: (D)-Lys at positions 1 and 10; N-methyl pseudopeptide bonds ψ(CONMe) between (D)Lys1 and Arg2 and between Trp8 and Lys9
Kd (CD47 receptor [3]): 16 µM

H-[dK][NMeR]FYVV[Nle]WK[dK]-OH [PKT16, H-(D)K ψ(CONMe)R F Y V V X W K (D)K-OH]
Kd (CD47 receptor [3]): 12.1 µM | Kd (CD47 receptor [6]): 7.4 µM | Kd (CD47 receptor [7]): 1.6 µM

Ac-KRFYVVMWKK-NH2 [peptide 2, Ac-KRFYVVMWKK-NH2]
Kd (CD47 receptor [1]): 40 µM | Kd (CD47 receptor [2]): 1.2 µM
